According to US20220275067A1 (PROTHENA BIOSCIENCES, published 2022):
Positions count from the first letter of the chain named. Where no end group is shown, it is not given here. The star is where a group is joined. Biotin = O=C1N[C@H]2[C@H](CS[C@H]2CCCCC(=O)*)N1

B1: mouse 14H3 antibody (antibody, mouse IgG2a, V domains shown)
VH: QVTLKESGPGILQPSQTLSLTCSFSGFSLSTYGMGVGWIRQPSGKGLEWLANIWWDDIKYYNAALKSRLTISKDTSKNQVFLKIASVDTADTATYYCARNVDYWGQGTTLTVSS
VL: DVVMTQTPLSLPVSLGDQASISCRSSQSLVHSNGNTFLHWYLQKPGQSPKLLIYKVSNRFSGVPDRFSGSGSGTDFTLKISRVEAEDLGVYFCSQSTLVPWTFGGGTKLEIK
modifications: here or on the partner: pHrodo label
B2: mouse 9F5 antibody (antibody, mouse IgG1, V domains shown)
VH: EVQLQQSGAELVRPGASVKLSCTASGFNIKDDYMNWVKQRPERGLEWIGWIDPENGDTEYASKFQGKATMTADTSSNTAYLQFSSLTSEDTAVYYCTTSNGWGQGTLVTVST
VL: DIVMTQAAFSNPVTLGTSASISCRSSKSLLHSNGITYLYWYLQKPGQSPQLLIYQMSNLASGVPDRFSSSGSGTDFTLRISRVEAEDVGVYYCAQNLELPLTFGAGTKLELK
modifications: here or on the partner: pHrodo label
B3: mouse 2D11 antibody (antibody, mouse IgG2a, V domains shown)
VH: B2 VH
VL: B2 VL
modifications: here or on the partner: pHrodo label
B4: mouse 10C12 antibody (antibody, mouse IgG2a, V domains shown)
VH: B2 VH
VL: B2 VL
modifications: here or on the partner: pHrodo label
B5: mouse 12C4 antibody (antibody, mouse IgG2a, V domains shown)
VH: B2 VH with K38R, E59A, T91S, T112A
VL: B2 VL
modifications: here or on the partner: pHrodo label
B6: mouse 17C12 antibody (antibody, mouse IgG2a, V domains shown)
VH: B2 VH with E1K, V2I, G26A, E59K, F83L, T112A
VL: DVVMTQTPLTLSVTIGQPASISCTSSQSLLHSNRKTYLHWLLQRPGQSPKLLIYLVSKLESGVPDRFSGSGSGTDFTLKISRVEAEDLGVYYCLQTTHFPRTFGGGTKLEIK
modifications: here or on the partner: pHrodo label
B7: mouse 14H3 antibody (antibody, mouse IgG2a, V domains shown)
VH: B1 VH
VL: B1 VL
notes: also called m14H3
B8: hu9F5VHv9/hu9F5VLv8_DIM28 (antibody, V domains shown)
VH: EVQLVQSGAEVKKPGATVKISCKASGFNIKDDYMNWVQQRPGKGLEWIGWIDPENGDTEYASKFQGRATMTADTSTNTAYMELSSLRSEDTAVYYCTTSNGWGQGTLVTVSS
VL: DIQMTQSPFSLPVTPGESASISCRSSKSLSHSNGITYLYWYLQKPGQSPQLLIYQGSNRASGVPNRFSSSGSGTDFTLKISRVEAEDVGVYYCAQNIELPLTFGQGTKLEIK
B9: hu9F5VHv10/hu9F5VLv9_DIM19 (antibody, V domains shown)
VH: B8 VH with Q38K, G42E
VL: B8 VL with L42I, G56I, N65D
B10: hu9F5VHv9/hu9F5VLv8_DIM29 (antibody, V domains shown)
VH: B8 VH
VL: B8 VL with L42Q, G56M
B11: hu9F5VHv10/hu9F5VLv9_DIM2 (antibody, V domains shown)
VH: B8 VH with Q38K, G42E
VL: B8 VL with L42Q, N65D
B12: hu9F5VHv10/hu9F5VLv9_DIM8 (antibody, V domains shown)
VH: B8 VH with Q38K, G42E
VL: B8 VL with S30G, L42Q, G56K, N65D
B13: hu9F5VHv10/hu9F5VLv9_DIM10 (antibody, V domains shown)
VH: B8 VH with Q38K, G42E
VL: B8 VL with L42Q, G56K, R59G, N65D
B14: hu9F5VHv10/hu9F5VLv9_DIM4 (antibody, V domains shown)
VH: B8 VH with Q38K, G42E
VL: B8 VL with L42Q, N65D, I97G
B15: hu9F5VHv10/hu9F5VLv9_DIM11 (antibody, V domains shown)
VH: B8 VH with Q38K, G42E
VL: B8 VL with S30G, L42G, N65D
notes: also called H10L9-DIM11; H10L9DIM11
B16: hu9F5VHv10/hu9F5VLv9_DIM5 (antibody, V domains shown)
VH: B8 VH with Q38K, G42E
VL: B8 VL with S30G, L42Q, N65D
B17: hu9F5VHv10/hu9F5VLv9_DIM13 (antibody, V domains shown)
VH: B8 VH with Q38K, G42E
VL: B8 VL with S30G, L42G, N65D, I97L
B18: hu9F5VHv9/hu9F5VLv8_DIM30 (antibody, V domains shown)
VH: B8 VH
VL: B8 VL with L42Q, R59L
B19: hu9F5VHv10/hu9F5VLv9_DIM20 (antibody, V domains shown)
VH: B8 VH with Q38K, G42E
VL: B8 VL with L42Q, G56I, R59G, N65D
B20: hu9F5VHv10/hu9F5VLv9_DIM1 (antibody, V domains shown)
VH: B8 VH with Q38K, G42E
VL: B8 VL with L42Q, R59G, N65D

target: pHrodo-labeled tau P301L soluble oligomer, P10636; assay: cell-based or functional assay
Sequence (P10636 other isoform, or with tags, fused parts or gaps P301L P301L): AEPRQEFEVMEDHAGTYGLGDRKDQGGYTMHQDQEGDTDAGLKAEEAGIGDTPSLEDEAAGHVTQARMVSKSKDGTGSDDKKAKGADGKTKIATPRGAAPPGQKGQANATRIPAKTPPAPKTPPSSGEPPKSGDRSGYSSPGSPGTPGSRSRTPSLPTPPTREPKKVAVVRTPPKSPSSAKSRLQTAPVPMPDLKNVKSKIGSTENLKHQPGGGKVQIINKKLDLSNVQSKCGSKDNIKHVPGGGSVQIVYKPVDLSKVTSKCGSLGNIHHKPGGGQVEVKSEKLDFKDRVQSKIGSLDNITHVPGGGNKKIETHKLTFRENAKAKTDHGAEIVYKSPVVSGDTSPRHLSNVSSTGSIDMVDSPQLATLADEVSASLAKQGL

Binder	internalized pHrodo-tau in B103 cells (FACS), antibody at 0.061 µg/mL (% of maximum signal)	internalized pHrodo-tau in B103 cells (FACS), antibody at 0.244 µg/mL (% of maximum signal)	internalized pHrodo-tau in B103 cells (FACS), antibody at 0.98 µg/mL (% of maximum signal)	internalized pHrodo-tau in B103 cells (FACS), antibody at 3.9 µg/mL (% of maximum signal)	internalized pHrodo-tau in B103 cells (FACS), antibody at 15.625 µg/mL (% of maximum signal)	internalized pHrodo-tau in B103 cells (FACS), antibody at 62.5 µg/mL (% of maximum signal)
B1	79.7	66	67.8	63.1	53.2	48.4
B2	78.1	71.7	71	35.9	24.2	18.1
B3	71.5	79.5	62.7	43	28.6	28.4
B4	86.7	9.09	90.5	55.2	38.9	34.5
B5	78.2	78.6	69.7	42.6	36.6	37.3
B6	79.8	78.6	63.9	36.8	32.4	30.6

Target: T1, biotinylated 15 amino acid tau peptide, residues 302-316 (human)
T1 peptide: Biotin-GGGSVQIVYKPVDLS
Assay: ELISA, biotinylated peptide on streptavidin plate
Method: (§1) Peptides contained 15 amino acids, with a 5 amino acid overlap. To enable binding to a streptavidin surface, peptides also contained an N-terminal biotin. Peptides were incubated on a streptavidin-coated plate, and the plate was blocked with 1% BSA in 1× PBS. After washing, antibodies were incubated on the plates for 1 hour at room temperature and washed. Plates were then coated with goat anti-mouse horseradish peroxidase (HRP), and washed. Plates were developed with OPD, and absorbance was read at 490 nm. […]

Binder	binding result
B7	binds

Target: T2, biotinylated 15 amino acid tau peptide, residues 383-397 (human)
T2 peptide: Biotin-KAKTDHGAEIVYKSP
Assay: ELISA, biotinylated peptide on streptavidin plate
Method: as §1

Binder	binding result
B7	binds

target: T3, recombinant human 4R0N tau (human, UniProt P10636 2-758); assay: SPR Biacore T200; antibody captured by anti-human Fc; tau as analyte; global 1:1 fit
T3 construct: also called recombinant 4R0N human tau; P10636-6
Method: Target binding analysis was performed using a Biacore T200 to compare the binding affinity of humanized 9F5 variants to recombinant human 4R0N tau. Anti-Human Fc antibody was immobilized on sensor chip CM3 via amine coupling, and humanized 9F5 variants were captured to equivalent levels. Various concentrations of recombinant 4R0N human tau (ranging from 0.02 nM to 12.5 nM) were passed over the captured ligand at 50 μL/min in running buffer (HBS+0.05% P-20, 1 mg/mL BSA) for 180 seconds association/420 seconds dissociation as a single cycle. Data was blank subtracted to both an irrelevant sensor not containing antibody and 0 nM analyte concentration. Analysis was performed using a global 1:1 fit with Biacore Evaluation software.

T3 sequence (P10636 other isoform, or with tags, fused parts or gaps limits assumed): as the sequence (P10636 other isoform, or with tags, fused parts or gaps P301L P301L) above

Binder	Kd [pM]	koff [s⁻¹]	kon [M⁻¹ s⁻¹]
B8	69.2	0.000217	3.13e+06
B9	1970	0.00688	3.49e+06
B10	270	0.000534	1.98e+06
B11	679	0.00184	2.72e+06
B12	859	0.00232	2.71e+06
B13	3770	0.026	6.89e+06
B14	1740	0.00439	2.53e+06
B15	163	0.000287	1.76e+06
B16	542	0.000919	1.7e+06
B17	508	0.00116	2.28e+06
B18	438	0.000447	1.02e+06
B19	9620	0.0334	3.47e+06
B20	1470	0.00395	2.69e+06

target: T3, recombinant human 4R0N tau; assay: SPR Biacore; antibody captured by anti-mouse antibody; tau as analyte; global 1:1 fit
Method: Surface plasmon resonance (SPR) analysis using Biacore was performed by immobilizing an anti-mouse (GE Lifesciences) antibody to a CM3 chip with EDC/NHS. Antibodies were then captured to the anti-mouse surface to equivalent levels. Regeneration was performed with 2 30 s injections of 10 mM Glycine pH 1.7. Various concentrations ranging from 500 to 0.122 nM, diluted in […] dilutions, of recombinant human 4R0N tau were flowed over the sensor for a 150s association phase and 300 s dissociation phase. Data was blank subtracted to both an irrelevant sensor not containing test antibody to account for irrelevant binding to the prepared sensor surface, and to the mobile phase vehicle to account for the dissociation of test antibody from the anti-mouse capture. Data was then analyzed with onboard evaluation software using a global 1:1 fit.

Binder	Kd [pM]	koff [s⁻¹]	kon [M⁻¹ s⁻¹]
B7	202	0.00153	7.6e+06
